Experimental data taken from US20220033904A1 (CHILDREN S MEDICAL CENTER, published 2022).
Values belong to the binder of their own block, whether it stands above or below them.

How the values were obtained:
LRP6 = target: T1, LRP6 (human, UniProt O75581 20-1613); test: co-IP, immunoblot (FIG. 3F)
T1 construct: whole, on cells; The legend says 'endogenous FZD5 but not LRP6'

USP8N = target: T2, USP8N (UniProt P40818 1-714, limits assumed); test: co-IP, immunoblot (FIG. 5C)
T2 construct: domain: USP8 N terminus; also called USP8 N terminus; N-terminal half of USP8
T2 sequence (looked up): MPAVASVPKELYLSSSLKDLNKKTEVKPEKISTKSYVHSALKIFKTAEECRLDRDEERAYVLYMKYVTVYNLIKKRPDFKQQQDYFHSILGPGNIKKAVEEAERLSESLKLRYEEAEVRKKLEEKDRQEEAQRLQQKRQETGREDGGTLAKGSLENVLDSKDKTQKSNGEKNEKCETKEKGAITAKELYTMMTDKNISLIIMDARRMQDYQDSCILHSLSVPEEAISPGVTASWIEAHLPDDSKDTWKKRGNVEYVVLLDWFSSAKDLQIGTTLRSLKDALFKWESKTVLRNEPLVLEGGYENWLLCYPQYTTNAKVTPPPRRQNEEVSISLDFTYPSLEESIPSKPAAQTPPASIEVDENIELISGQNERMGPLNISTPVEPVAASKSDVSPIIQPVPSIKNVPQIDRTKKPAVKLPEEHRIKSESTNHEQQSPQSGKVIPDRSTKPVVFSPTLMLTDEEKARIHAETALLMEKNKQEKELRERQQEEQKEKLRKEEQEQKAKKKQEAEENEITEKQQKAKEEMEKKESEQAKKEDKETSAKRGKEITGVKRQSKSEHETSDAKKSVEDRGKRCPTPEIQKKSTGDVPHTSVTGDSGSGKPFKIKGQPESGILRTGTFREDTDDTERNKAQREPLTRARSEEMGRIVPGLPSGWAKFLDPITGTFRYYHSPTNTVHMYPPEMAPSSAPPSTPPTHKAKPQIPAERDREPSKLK

FZD5 = target: T3, FZD5
T3 chain: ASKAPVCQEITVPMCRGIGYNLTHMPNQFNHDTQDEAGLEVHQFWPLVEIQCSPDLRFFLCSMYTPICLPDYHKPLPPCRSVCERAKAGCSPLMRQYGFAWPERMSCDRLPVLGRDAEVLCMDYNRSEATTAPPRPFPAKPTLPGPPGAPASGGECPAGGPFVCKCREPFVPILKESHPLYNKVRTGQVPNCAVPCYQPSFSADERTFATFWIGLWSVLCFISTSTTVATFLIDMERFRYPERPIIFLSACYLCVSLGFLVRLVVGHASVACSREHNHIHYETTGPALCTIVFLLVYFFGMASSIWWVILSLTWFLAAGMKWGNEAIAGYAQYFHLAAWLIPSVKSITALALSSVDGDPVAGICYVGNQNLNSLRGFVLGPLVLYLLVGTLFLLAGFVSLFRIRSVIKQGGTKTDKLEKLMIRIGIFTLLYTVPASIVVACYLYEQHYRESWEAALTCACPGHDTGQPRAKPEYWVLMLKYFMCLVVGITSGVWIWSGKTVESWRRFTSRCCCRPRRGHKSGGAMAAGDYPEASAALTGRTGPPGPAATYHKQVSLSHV

T1 sequence (O75581 20-1613): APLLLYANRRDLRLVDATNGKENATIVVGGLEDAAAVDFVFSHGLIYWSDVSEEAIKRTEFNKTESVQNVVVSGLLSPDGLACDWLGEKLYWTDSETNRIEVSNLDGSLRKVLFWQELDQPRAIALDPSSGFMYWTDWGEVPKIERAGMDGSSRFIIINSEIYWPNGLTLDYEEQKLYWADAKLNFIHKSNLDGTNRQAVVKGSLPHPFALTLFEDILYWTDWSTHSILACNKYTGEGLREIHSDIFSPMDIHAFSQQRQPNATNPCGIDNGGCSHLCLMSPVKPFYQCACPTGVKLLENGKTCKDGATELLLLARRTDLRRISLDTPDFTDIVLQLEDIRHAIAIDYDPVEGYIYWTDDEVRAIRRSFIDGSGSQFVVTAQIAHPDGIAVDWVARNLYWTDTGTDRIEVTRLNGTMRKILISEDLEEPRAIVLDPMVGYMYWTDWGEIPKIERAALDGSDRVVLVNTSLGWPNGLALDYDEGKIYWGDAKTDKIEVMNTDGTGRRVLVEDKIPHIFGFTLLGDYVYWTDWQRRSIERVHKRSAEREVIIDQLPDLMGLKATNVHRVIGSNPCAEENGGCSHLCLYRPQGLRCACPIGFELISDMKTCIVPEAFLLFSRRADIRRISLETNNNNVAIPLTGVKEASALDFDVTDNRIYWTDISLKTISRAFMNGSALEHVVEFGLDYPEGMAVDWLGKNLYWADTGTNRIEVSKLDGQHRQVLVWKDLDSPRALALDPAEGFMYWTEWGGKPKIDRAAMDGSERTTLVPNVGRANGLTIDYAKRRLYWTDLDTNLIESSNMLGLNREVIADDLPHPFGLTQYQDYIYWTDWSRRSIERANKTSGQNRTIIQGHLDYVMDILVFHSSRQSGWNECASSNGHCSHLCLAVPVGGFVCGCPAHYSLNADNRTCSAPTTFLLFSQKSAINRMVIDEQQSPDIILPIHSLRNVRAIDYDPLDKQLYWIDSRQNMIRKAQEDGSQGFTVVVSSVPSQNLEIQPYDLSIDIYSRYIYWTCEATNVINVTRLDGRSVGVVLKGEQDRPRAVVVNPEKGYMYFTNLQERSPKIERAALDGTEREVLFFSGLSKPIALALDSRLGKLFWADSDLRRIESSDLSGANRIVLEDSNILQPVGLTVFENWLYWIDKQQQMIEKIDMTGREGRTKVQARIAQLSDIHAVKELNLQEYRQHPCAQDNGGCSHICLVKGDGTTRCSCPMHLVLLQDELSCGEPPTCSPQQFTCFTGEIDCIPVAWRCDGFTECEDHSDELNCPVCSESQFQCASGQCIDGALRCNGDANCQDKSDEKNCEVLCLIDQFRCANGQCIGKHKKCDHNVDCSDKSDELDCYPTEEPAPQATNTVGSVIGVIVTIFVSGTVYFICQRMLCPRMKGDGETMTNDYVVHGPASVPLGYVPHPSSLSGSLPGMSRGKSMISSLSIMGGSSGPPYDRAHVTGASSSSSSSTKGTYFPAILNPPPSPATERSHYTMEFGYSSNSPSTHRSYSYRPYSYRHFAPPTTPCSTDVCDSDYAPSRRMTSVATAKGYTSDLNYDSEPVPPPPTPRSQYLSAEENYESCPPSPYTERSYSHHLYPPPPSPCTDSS

binding result (LRP6): no binding
B1: TMEM79-Flag (other)
chain: MTEPETLALLDMKEPETPEKSPPQALVLQSEEEGGTESPGTESLRVGSSVGSPIVREGPEDGPDSTISEAATLPWGTDPHPSAPLPDPPGWRDIEPEPLESEAPTKSEEPFKEDANLLPEKTVRAFVPIDLQCIERKPQEERILHRDAGPGELRNFLPARLSHPEPPERKWAEAVVRPPGRSCGGCGSCGGREALRAVASVVAALIFFPCLLYGAYAFLPFDAPRLPTMSSRLVYTLRCGVFATFPIVLGLLVYGLSLLCFSALRPFGEPRREVEIHRQYVAQSVQLFILYFFNLAVLSTYLPQDTLKLLPLLTGLFAISRLIYWLTFAVGRSFRGFGYGLTFLPLLAMLVWNLYYMFVVEPERMLTASESRLDYPDHARSVSDYRPRSWG
notes: Expressed in HEK293T cells; co-IP from lysates; not shown: Flag tag at the C-terminus

binding result (USP8N): no binding
B2: TMEM79 (other)
chain: B1 chain
notes: It was expressed in HEK293T cells and tested by co-IP from lysates; also called Mattrin; full length TMEM79; not shown: Myc or Flag tag or both at the C-terminus

B3: USP8C (protein)
chain: RSYSSPDITQAIQEEEKRKPTVTPTVNRENKPTCYPKAEISRLSASQIRNLNPVFGGSGPALTGLRNLGNTCYMNSILQCLCNAPHLADYFNRNCYQDDINRSNLLGHKGEVAEEFGIIMKALWTGQYRYISPKDFKITIGKINDQFAGYSQQDSQELLLFLMDGLHEDLNKADNRKRYKEENNDHLDDFKAAEHAWQKHKQLNESIIVALFQGQFKSTVQCLTCHKKSRTFEAFMYLSLPLASTSKCTLQDCLRLFSKEEKLTDNNRFYCSHCRARRDSLKKIEIWKLPPVLLVHLKRFSYDGRWKQKLQTSVDFPLENLDLSQYVIGPKNNLKKYNLFSVSNHYGGLDGGHYTAYCKNAARQRWFKFDDHEVSDISVSSVKSSAAYILFYTSLGPRVTDVAT
deubiquitination (ubiquitylation assay) (SMO): USP8C promoted deubiquitination of both FZD5 and SMO
deubiquitination (ubiquitylation assay) (FZD5): USP8C promoted deubiquitination of both FZD5 and SMO
